Test results as given in publication PMC11239676 (2024).

T1: 15N-labelled NHR4 MYND domain of RUNX1T1 (UniProt Q06455 510-559, 15N-labelled)
T1 chain: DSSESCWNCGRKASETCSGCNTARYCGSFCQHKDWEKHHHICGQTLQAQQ


What was measured:
[1] = target: T1, 15N-labelled NHR4 MYND domain of RUNX1T1; experiment: NMR; pH 6
[2] = target: T1, 15N-labelled NHR4 MYND domain of RUNX1T1; experiment: NMR; pH 7.5

Row | Kd [1] | Kd [2] | Binder
1 | 370 µM | – | Ac-TISNPPPLISSAK-NH2 [NCOR2 peptide (human NCOR2 residues 1101-1113)]
2 | 820 µM | – | Ac-TLNQPPPLLRPTL-NH2 [RCOR3_1 peptide (human RCOR3 residues 410-422)]
3 | 680 µM | 370 µM | Ac-LNQPPPPLIRPAN-NH2 [RCOR3_3 peptide (human RCOR3 residues 448-460)]
